Paper PMC3568533
Values belong to the molecule of their own block, whether it stands above or below them.

Tests used:
[1] = target: CYP3A4 wild-type (N-terminus truncated) (human) (UniProt P08684); experiment: spectral titration
[2] = target: CYP3A4 K421A (N-terminus truncated) (human) (UniProt P08684); experiment: spectral titration
[3] = target: CYP3A4 K96A (N-terminus truncated) (human) (UniProt P08684); experiment: spectral titration
[4] = target: CYP3A4 wild-type (N-terminus truncated) (human) (UniProt P08684)
[5] = target: CYP3A4 K421A (N-terminus truncated) (human) (UniProt P08684)
[6] = target: CYP3A4 K96A (N-terminus truncated) (human) (UniProt P08684)
[7] = target: CYP3A4 wild-type (N-terminus truncated) (human) (UniProt P08684); remark: listed apart in the source
[8] = target: CYP3A4 K421A (N-terminus truncated) (human) (UniProt P08684); remark: listed apart in the source
[9] = target: CYP3A4 K96A (N-terminus truncated) (human) (UniProt P08684); remark: listed apart in the source

Kd [1]: 140 nM
Kd [2]: 287 nM
Kd [3]: 346 nM
Molecule: reconstituted holo b5 (human cyt b5 made in-house) (from UniProt P00167 1-134) (natural protein)

Ratio of Vmax + b5/− b5, testosterone 6β-hydroxylation, CYP:CPR:cyt b5 1:2:1 [4]: 1.7
Ratio of Vmax + b5/− b5, testosterone 6β-hydroxylation, CYP:CPR:cyt b5 1:2:1 [5]: 2
Ratio of Vmax + b5/− b5, testosterone 6β-hydroxylation, CYP:CPR:cyt b5 1:2:1 [6]: 1.3
Molecule: Histidine-tagged recombinant human cyt b5 (commercial holo b5) (from UniProt P00167 1-134) (natural protein)

apparent K'm,CPR of TST 6β-hydroxylation at varying CPR concentrations [7]: 41 nM
apparent K'm,CPR of TST 6β-hydroxylation at varying CPR concentrations [8]: 70 nM
apparent K'm,CPR of TST 6β-hydroxylation at varying CPR concentrations [9]: 91 nM
B1: rat cytochrome P450 reductase (enzyme)
chain: MGDSHEDTSATMPEAVAEEVSLFSTTDMVLFSLIVGVLTYWFIFRKKKEEIPEFSKIQTTAPPVKESSFVEKMKKTGRNIIVFYGSQTGTAEEFANRLSKDAHRYGMRGMSADPEEYDLADLSSLPEIDKSLVVFCMATYGEGDPTDNAQDFYDWLQETDVDLTGVKFAVFGLGNKTYEHFNAMGKYVDQRLEQLGAQRIFELGLGDDDGNLEEDFITWREQFWPAVCEFFGVEATGEESSIRQYELVVHEDMDVAKVYTGEMGRLKSYENQKPPFDAKNPFLAAVTANRKLNQGTERHLMHLELDISDSKIRYESGDHVAVYPANDSALVNQIGEILGADLDVIMSLNNLDEESNKKHPFPCPTTYRTALTYYLDITNPPRTNVLYELAQYASEPSEQEHLHKMASSSGEGKELYLSWVVEARRHILAILQDYPSLRPPIDHLCELLPRLQARYYSIASSSKVHPNSVHICAVAVEYEAKSGRVNKGVATSWLRAKEPAGENGGRALVPMFVRKSQFRLPFKSTTPVIMVGPGTGIAPFMGFIQERAWLREQGKEVGETLLYYGCRRSDEDYLYREELARFHKDGALTQLNVAFSREQAHKVYVQHLLKRDREHLWKLIHEGGAHIYVCGDARNMAKDVQNTFYDIVAEFGPMEHTQAVDYVKKLMTKGRYSLDVWS
